Laboratory results from paper PMC10147923, “Pain-causing stinging nettle toxins target TMEM233 to modulate NaV1.7 function” (Nature Communications, 2023).
Several values for one entry are separate records, joined by “and”; a condition that tells them apart may be missing. Equal entries are not always repeated.

Legend:
NaV1.7/TMEM233 = NaV1.7/TMEM233 (Homo sapiens, UniProt B4DJY2+Q15858); experiment: Proximity ligation assay NaV1.7 and TMEM233; conditions: Fig 5e
Method: HEK293 cells stably expressing β1/β2 were transiently transfected in T25 flasks using Lipofectamine 2000 with plasmids encoding GFP (0.35 μg) as a transfection control, as well as N-terminal HA-tagged TMEM233 (0.35 μg) and N-terminal FLAG- tagged NaV1.7 (1.0 μg) alone or in combination. The total amount of plasmid DNA/T25 flask was kept constant at 1.7 μg flask using empty pcDNA3.1 plasmid as required. After 24 h incubation at 37 °C, cells were plated on PDL-coated glass coverslips and cultured for a further 24 h. Cells were washed once using sterile phosphate-buffered saline, fixed with 4% formaldehyde for 5 min, permeabilized with 0.1% Triton-X 100 in PSS, blocked using proximity ligation bocking buffer (Sigma DUO82007) and incubated for 1 h with anti-FLAG (1:1000; Sigma F1804) and anti-HA (1:1000; Sigma H6908) antibodies in Duolink antibody diluent. Permeabilized cells were then washed twice with wash buffer A at room temperature for 5 min. Anti-mouse PLUS (Sigma DUO92001) and anti-rabbit MINUS (Sigma DUO92005) probes were diluted 1:5 in Duolink antibody diluent and incubated with cells for 1 h at 37 °C. Cells were then washed with wash buffer A at room temperature for 5 min twice and incubated with ligase diluted 1:40 in ligation buffer. After incubation at 37 °C for 30 mins, cells were washed twice with wash buffer A. Polymerase was diluted 1:80 in amplification buffer and incubated with cells for 100 mins at 37 °C. Cells were subsequently washed with wash buffer B twice for 10 mins and mounted with Duolink In Situ mounting media with DAPI. Cells were imaged on a Zeiss AxioImage M2 with Apotome2 and Axiocam 506 camera. Proximity ligation assay signal (PLA particles) in GFP-positive cells were quantified using ImageJ in collapsed stacks from 3–6 random images obtained per coverslip (Image>Type>8-bit; Image>Adjust>Threshold; Image>Analyze>Analyze Particles). Particles size was set to 0.0003–∞ and circularity to 0.00–1.00. The average number of particles/GFP-positive cells from three independent experiments was analyzed by One-way ANOVA.

NaV1.7 = NaV1.7 (Homo sapiens, UniProt Q15858); assay type: cell-based
Method: To determine recovery from fast inactivation, a 20 ms pulse to 0 mV from a holding potential of −90 mV was used to induce fast inactivation. A subsequent recovery period, ranging from 1 ms to 2216 ms in 50% increments at −90 mV, was followed by a last 20 ms test pulses to 0 mV to determine the time-dependence of recovery from fast inactivation. The proportion of available channels was determined by normalizing peak currents from the last to the first pulse. A two-phase exponential equation was fit to the normalized current, plotted as a function of time, to determine the time constants τ1 and τ2 of recovery from fast inactivation.

NaV1.7/TMEM233, sequence (Q07699 19-218, one chain of several, further chain): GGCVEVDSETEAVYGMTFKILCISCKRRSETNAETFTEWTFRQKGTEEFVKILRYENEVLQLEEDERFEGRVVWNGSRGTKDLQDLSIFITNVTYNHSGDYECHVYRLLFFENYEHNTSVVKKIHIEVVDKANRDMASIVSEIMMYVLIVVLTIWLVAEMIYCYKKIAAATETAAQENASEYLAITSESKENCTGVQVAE
NaV1.7/TMEM233, sequence (Q15858 whole entry, one chain of several): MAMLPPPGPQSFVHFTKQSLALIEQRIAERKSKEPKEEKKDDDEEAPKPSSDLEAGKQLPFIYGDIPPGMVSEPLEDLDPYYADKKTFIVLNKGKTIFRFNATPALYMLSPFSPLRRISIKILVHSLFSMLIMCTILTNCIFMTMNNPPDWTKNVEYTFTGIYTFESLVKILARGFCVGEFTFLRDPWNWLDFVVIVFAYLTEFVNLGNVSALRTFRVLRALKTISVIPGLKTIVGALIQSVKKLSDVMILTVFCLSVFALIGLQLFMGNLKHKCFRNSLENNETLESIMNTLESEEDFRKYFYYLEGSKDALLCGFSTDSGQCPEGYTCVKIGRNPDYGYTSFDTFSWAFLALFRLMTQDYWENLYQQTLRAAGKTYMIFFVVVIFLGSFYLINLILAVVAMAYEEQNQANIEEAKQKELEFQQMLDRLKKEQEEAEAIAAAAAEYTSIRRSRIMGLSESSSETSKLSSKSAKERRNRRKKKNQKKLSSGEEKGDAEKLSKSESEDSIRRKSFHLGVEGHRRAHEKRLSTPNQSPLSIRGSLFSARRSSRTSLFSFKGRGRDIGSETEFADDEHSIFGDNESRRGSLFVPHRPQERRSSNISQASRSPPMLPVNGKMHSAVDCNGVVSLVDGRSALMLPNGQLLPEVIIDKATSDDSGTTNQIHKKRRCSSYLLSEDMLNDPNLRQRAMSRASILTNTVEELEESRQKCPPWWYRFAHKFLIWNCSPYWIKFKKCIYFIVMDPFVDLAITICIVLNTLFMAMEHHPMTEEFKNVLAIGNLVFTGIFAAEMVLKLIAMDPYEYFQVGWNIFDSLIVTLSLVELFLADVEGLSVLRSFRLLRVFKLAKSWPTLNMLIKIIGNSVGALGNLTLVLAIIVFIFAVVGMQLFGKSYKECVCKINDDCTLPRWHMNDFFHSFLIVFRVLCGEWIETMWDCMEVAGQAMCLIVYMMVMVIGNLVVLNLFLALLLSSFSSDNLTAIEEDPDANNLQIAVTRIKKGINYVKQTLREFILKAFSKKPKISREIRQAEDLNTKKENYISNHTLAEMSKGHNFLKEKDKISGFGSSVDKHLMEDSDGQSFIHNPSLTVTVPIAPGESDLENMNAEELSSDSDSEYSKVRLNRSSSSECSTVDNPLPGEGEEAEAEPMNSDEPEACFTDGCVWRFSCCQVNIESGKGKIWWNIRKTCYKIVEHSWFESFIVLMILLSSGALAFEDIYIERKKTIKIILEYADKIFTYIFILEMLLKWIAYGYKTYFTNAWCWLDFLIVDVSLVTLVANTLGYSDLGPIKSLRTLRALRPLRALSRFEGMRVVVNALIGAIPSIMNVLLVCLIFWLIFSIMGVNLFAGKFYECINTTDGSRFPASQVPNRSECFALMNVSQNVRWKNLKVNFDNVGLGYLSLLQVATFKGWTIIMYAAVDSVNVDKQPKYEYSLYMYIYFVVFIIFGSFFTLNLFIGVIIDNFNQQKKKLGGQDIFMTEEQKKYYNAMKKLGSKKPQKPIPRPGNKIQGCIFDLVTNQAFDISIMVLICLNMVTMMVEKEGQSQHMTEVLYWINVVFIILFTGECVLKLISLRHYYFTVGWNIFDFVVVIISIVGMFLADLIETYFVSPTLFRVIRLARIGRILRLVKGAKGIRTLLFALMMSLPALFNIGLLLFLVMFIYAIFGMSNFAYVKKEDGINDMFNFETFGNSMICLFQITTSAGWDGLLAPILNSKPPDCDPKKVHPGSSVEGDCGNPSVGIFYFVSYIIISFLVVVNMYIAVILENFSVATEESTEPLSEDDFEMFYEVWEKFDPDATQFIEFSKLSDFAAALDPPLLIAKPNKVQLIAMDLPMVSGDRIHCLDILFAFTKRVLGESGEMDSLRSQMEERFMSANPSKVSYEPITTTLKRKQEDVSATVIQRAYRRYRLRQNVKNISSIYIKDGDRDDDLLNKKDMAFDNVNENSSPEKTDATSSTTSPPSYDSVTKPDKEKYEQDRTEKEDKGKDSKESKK
NaV1.7, sequence (Q15858 whole entry): as the sequence (Q15858 whole entry, one chain of several) above
NaV1.7, sequence (Q07699 19-218, further chain): as the sequence (Q07699 19-218, one chain of several, further chain) above

Molecule	particles/cell, mean (NaV1.7/TMEM233; mean of n = 3) [particles/cell]	particles/cell (NaV1.7/TMEM233; replicate 1) [particles/cell]	particles/cell (NaV1.7/TMEM233; replicate 2) [particles/cell]	particles/cell (NaV1.7/TMEM233; replicate 3) [particles/cell]	Tau Fast, individual values (NaV1.7)	Tau Fast, mean (NaV1.7)	Tau Fast, mean diff. NaV1.7/β1/TMEM233 35-109 vs. NaV1.7/β1 (NaV1.7)
HA-TMEM233 (protein, UniProt B4DJY2 1-109, looked up, HA tag) Transmembrane protein 233: MSQYAPSPDFKRALDSSPEANTEDDKTEEDVPMPKNYLWLTIVSCFCPAYPINIVALVFSIMSLNSYNDGDYEGARRLGRNAKWVAIASIIIGLLIIGISCAVHFTRNA	7.485	4.895	6.562	11	–	–	–
TMEM233 35-109 (protein, UniProt B4DJY2 35-109, looked up, fragment) KNYLWLTIVSCFCPAYPINIVALVFSIMSLNSYNDGDYEGARRLGRNAKWVAIASIIIGLLIIGISCAVHFTRNA	–	–	–	–	8.336 and 5.75 and 6.866 and 4.165 and 7.033 and 6.03 and 5.901	6.297	0.2467
